For this data set, the target named is human alpha-thrombin (Homo sapiens, UniProt P00734;P00734 328-363;364-622). Description: BLI. For orientation: In BLI a coated tip is dipped into the sample, and binding shifts an interference pattern.

The term Kd denotes the free concentration of one partner at which half of the binding sites on the other are occupied at equilibrium, for simple one-to-one binding. Read a low Kd as higher affinity. GGTTGGTGTGGTTGG (structured_DNA, none) [TBA] had a Kd of 2.8 nM.

B1: T4WT12W (structured_DNA)
DNA: GGTTGGTGTGGTTGG
modifications: T4 and T12 = W, 5-(indolyl-3-acetyl-3-amino-1-propenyl)-2'-deoxyuridine (written T)
For the molecule B1, binding was put at a Kd of 0.31 nM.
The value for GGTTGGTGTGGTTGG (structured_DNA, T12 = W, 5-(indolyl-3-acetyl-3-amino-1-propenyl)-2'-deoxyuridine (written T)) [T12W] was 1.3 nM; that for GGTTGGTGTGGTTGG (structured_DNA, T4 = W, 5-(indolyl-3-acetyl-3-amino-1-propenyl)-2'-deoxyuridine (written T)) [T4W] was 1 nM; that for GGTTGGTGTGGTTGG (structured_DNA, T7 = W, 5-(indolyl-3-acetyl-3-amino-1-propenyl)-2'-deoxyuridine (written T)) [T7W] was 1.7 nM.
The value for GGTTGGTGTGGTTGG (structured_DNA, T4 = K, 5-(methyl-3-acetyl-3-amino-1-propenyl)-2'-deoxyuridine (written T)) [T4K] was 0.39 nM.
The value for GGTTGGTGTGGTTGG (structured_DNA, T3 = W, 5-(indolyl-3-acetyl-3-amino-1-propenyl)-2'-deoxyuridine (written T)) [T3W] was 3.9 nM.

The values above are taken from publication PMC5961234.
